{
  "source": "paper PMC5646241",
  "about": "“Copper Chaperone CupA and Zinc Control CopY Regulation of the Pneumococcal cop Operon”",
  "molecules": {"B1": {"name": "pSP_1541 promoter, FAM (dsDNA)", "DNA 1": "GCGAACCTCACTTACCCCTTGCAAAGTCTTGGGGTCATTAGA", "DNA 2": "TCTAATGACCCCAAGACTTTGCAAGGGGTAAGTGAGGTTCGC"}, "B2": {"name": "pSP_1541 promoter, biotinylated (dsDNA)", "DNA 1": "B1 DNA 1", "DNA 2": "B1 DNA 2"}, "B3": {"name": "pSP_0727 cop promoter, FAM (dsDNA)", "DNA 1": "TCTATAATTGACAAATGTAGATTTTAAGAGTATACTGATGAGTGTAATTGACAAATG", "DNA 2": "CATTTGTCAATTACACTCATCAGTATACTCTTAAAATCTACATTTGTCAATTATAGA"}},
  "key": {"[1]": {"target": "CopY, repressor of the Streptococcus pneumoniae cop operon (Streptococcus pneumoniae TIGR4)", "assay": "SEC-MALS; WTC-010S5 column, 50 mM Tris-HCl pH 7.5, 100 mM NaCl, 5% glycerol, with 100 µM zinc, 25°C"}, "[2]": {"target": "CopY, repressor of the Streptococcus pneumoniae cop operon (Streptococcus pneumoniae TIGR4)", "assay": "SEC-MALS; WTC-010S5 column, 50 mM Tris-HCl pH 7.5, 100 mM NaCl, 5% glycerol, without zinc (apo CopY), 25°C"}, "[3]": {"target": "T1, CopY (copper-responsive cop operon repressor) (Streptococcus pneumoniae TIGR4, UniProt A0ACD7PQP7 1-131)", "assay": "fluorescence polarization; apo; described as nonspecific binding, linear; FP: 50 mM Tris-HCl pH 7.5, 100 mM NaCl, 5% glycerol, Chelex-treated, 10 nM DNA, temperature not stated; EMSA: TBS, 20 ul, 4 C, 50 uM CopY, 50 ng DNA, 6% TBE gel, 0.5x TB running buffer without EDTA", "conditions": "protein: recombinant; tags: pMCSG7 vector construct (tag not given); chain copies: 2; label: FAM on strand 1; blunt"}, "[4]": {"target": "T1, CopY (copper-responsive cop operon …)", "assay": "EMSA; no metal; 50 uM CopY; FP: 50 mM Tris-HCl pH 7.5, 100 mM NaCl, 5% glycerol, Chelex-treated, 10 nM DNA, temperature not stated; EMSA: TBS, 20 ul, 4 C, 50 uM CopY, 50 ng DNA, 6% TBE gel, 0.5x TB running buffer without EDTA", "conditions": "protein: recombinant; tags: pMCSG7 vector construct (tag not given); chain copies: 2; label: 3' biotin on strand 1; blunt"}, "CopY, zinc-bound": {"target": "CopY, zinc-bound (Streptococcus pneumoniae TIGR4, UniProt A0ACD7PQP7 1-131)", "assay": "fluorescence polarization; 10 uM Zn2+; FP: 50 mM Tris-HCl pH 7.5, 100 mM NaCl, 5% glycerol, Chelex-treated, 10 nM DNA, temperature not stated; EMSA: TBS, 20 ul, 4 C, 50 uM CopY, 50 ng DNA, 6% TBE gel, 0.5x TB running buffer without EDTA", "conditions": "protein: recombinant; tags: pMCSG7 vector construct (tag not given); chain copies: 4; label: FAM on strand 1; blunt"}, "[5]": {"target": "T1, CopY (copper-responsive cop operon …)", "assay": "fluorescence polarization; apo, no metal; FP: 50 mM Tris-HCl pH 7.5, 100 mM NaCl, 5% glycerol, Chelex-treated, 10 nM DNA, temperature not stated; EMSA: TBS, 20 ul, 4 C, 50 uM CopY, 50 ng DNA, 6% TBE gel, 0.5x TB running buffer without EDTA", "conditions": "protein: recombinant; tags: pMCSG7 vector construct (tag not given); chain copies: 2; label: FAM on strand 1; blunt"}},
  "data": [
    {"molecule": "CopY, repressor of the Streptococcus pneumoniae cop operon (natural protein)", "values": [
      {"measurement": "stoichiometry N", "setting": "[1]", "result": 4},
      {"measurement": "stoichiometry N", "setting": "[2]", "result": 2}
    ]},
    {"molecule": "B1", "values": [
      {"measurement": "binding result", "setting": "[3]", "result": "no binding"}
    ]},
    {"molecule": "B2", "values": [
      {"measurement": "binding result", "setting": "[4]", "result": "no binding"}
    ]},
    {"molecule": "B3", "values": [
      {"measurement": "Kd", "setting": "CopY, zinc-bound", "result": "520 ± 130", "unit": "nM"},
      {"measurement": "Kd", "setting": "[5]", "result": "4240 ± 780", "unit": "nM"}
    ]}
  ]
}
